Data taken from patent publication US20220249640A1.

Target: PD-1 (soluble, biotinylated, on sensors or coated on plates) (human) (UniProt Q15116)
Experiment: method not stated at the list; Octet curves in FIG. 29

Chain of PD-1 (soluble, biotinylated, on sensors or coated on plates) (human) (Q15116 25-167 limits assumed): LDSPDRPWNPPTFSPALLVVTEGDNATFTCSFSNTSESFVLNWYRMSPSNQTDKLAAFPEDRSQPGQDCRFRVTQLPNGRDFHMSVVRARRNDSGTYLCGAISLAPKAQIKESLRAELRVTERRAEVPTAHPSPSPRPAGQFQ

Kd: 0.1 nM
B1: PD1#3 scFv-Fc (Fc fusion, part only; not given: Fc, linker, domain order, not shown: another chain or arm of the molecule; a dimerising Fc or GST; small tags and cut ends)
VH: QVQLVQSGAEVKKPGSSVKVSCKTSGYTFNRFGLTWVRQAPGQGLEWMGWTNPYNGNTRYAQKFQGRVTMTTDTSTSTAYMELRSLRSDDTAMYFCARVVAVNGMDVWGQGTTVTVSS
VL: NFMLTQPHSVSESPGKTVTISCTRNSGSIAAYYVQWYQQRPGSSPTTVIYEDNQRPSGVPDRFSGSIDSSSNSASLTISGLKTEDEADYYCQSYDSSNLWVFGGGTKLTVL
